Reference: publication PMC9482650, “Quantitative fragmentomics allow affinity mapping of interactomes” (Nature Communications, 2022)

T1: PCLO, Q9Y6V0
T1 sequence (Q9Y6V0 4491-4600, limits assumed, looked up): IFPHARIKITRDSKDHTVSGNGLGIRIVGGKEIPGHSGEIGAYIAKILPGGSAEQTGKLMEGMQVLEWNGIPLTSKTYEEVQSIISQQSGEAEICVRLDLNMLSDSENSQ

T2: LIN7A, O14910
T2 sequence (O14910 103-200, limits assumed, looked up): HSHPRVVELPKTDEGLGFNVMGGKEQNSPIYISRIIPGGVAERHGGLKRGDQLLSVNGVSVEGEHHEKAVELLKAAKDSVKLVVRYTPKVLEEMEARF

T3: GRIP1_7, Q9Y3R0
T3 sequence (Q9Y3R0 999-1096, limits assumed, looked up): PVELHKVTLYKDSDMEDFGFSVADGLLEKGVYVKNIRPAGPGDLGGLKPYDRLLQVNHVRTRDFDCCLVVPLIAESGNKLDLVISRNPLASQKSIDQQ

T4: GRIP1_5, Q9Y3R0
T4 sequence (Q9Y3R0 568-668, limits assumed, looked up): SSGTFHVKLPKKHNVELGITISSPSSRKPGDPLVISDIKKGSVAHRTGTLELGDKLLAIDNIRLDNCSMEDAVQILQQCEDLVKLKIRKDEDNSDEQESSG

T5: MPP7, Q5T2T1
T5 sequence (Q5T2T1 134-230, limits assumed, looked up): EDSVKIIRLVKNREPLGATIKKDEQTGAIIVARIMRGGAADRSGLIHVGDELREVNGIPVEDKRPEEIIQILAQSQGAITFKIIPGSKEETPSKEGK

T6: PDZRN3_1, Q9UPQ7
T6 sequence (Q9UPQ7 244-349, limits assumed, looked up): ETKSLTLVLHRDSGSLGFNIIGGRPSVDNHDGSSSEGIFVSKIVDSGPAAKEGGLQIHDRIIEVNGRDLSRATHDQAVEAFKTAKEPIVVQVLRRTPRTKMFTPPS

T7: SYNJ2BP, P57105
T7 sequence (P57105 8-110, limits assumed, looked up): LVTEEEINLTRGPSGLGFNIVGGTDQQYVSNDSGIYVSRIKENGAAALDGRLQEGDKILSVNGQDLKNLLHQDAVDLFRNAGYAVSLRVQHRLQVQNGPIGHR

T8: MPP6, Q9NZW5
T8 sequence (Q9NZW5 125-219, limits assumed, looked up): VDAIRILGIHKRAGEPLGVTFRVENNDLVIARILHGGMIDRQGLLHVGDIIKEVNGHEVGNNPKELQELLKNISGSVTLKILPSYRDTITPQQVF

T9: ARHGEF11, O15085
T9 sequence (O15085 42-136, limits assumed, looked up): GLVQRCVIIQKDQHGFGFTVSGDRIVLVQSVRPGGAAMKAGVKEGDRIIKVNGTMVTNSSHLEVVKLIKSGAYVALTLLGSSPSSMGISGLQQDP

T10: PTPN13_1, Q12923
T10 sequence (Q12923 1088-1188, limits assumed, looked up): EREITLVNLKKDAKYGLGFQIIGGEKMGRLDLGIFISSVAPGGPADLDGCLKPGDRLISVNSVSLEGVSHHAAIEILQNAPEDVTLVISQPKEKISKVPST


How the values were obtained:
Assay in all cases: holdup assay
Design in all cases: key: below the threshold = too weak to quantify, mostly under pKd 3.1 to 4
Conditions in all cases: plain residues with an end cap or a label only (N-terminal biotin on a linker: ado-ado)
[1] = molecular target: T1, PCLO, Q9Y6V0
[2] = molecular target: NHERF4_2, Q86UT5
[3] = molecular target: T2, LIN7A, O14910
[4] = molecular target: T3, GRIP1_7, Q9Y3R0
[5] = molecular target: T4, GRIP1_5, Q9Y3R0
[6] = molecular target: AHNAK1, Q09666
[7] = molecular target: MAGI2_3, Q86UL8
[8] = molecular target: GRID2IP_1, A4D2P6
[9] = molecular target: T5, MPP7, Q5T2T1
[10] = molecular target: MAGI1_2, Q96QZ7
[11] = molecular target: MAGI1_1, Q96QZ7
[12] = molecular target: MAST2, Q6P0Q8
[13] = molecular target: FRMPD2_1, Q68DX3
[14] = molecular target: GRIP2_6, Q9C0E4
[15] = molecular target: GRIP2_3, Q9C0E4
[16] = molecular target: SCRIB_2, Q14160
[17] = molecular target: T6, PDZRN3_1, Q9UPQ7
[18] = molecular target: GRASP, Q7Z6J2
[19] = molecular target: DLG4_2, P78352
[20] = molecular target: T7, SYNJ2BP, P57105
[21] = molecular target: T8, MPP6, Q9NZW5
[22] = molecular target: MAGI2_5, Q86UL8
[23] = molecular target: GIPC2, Q8TF65
[24] = molecular target: T9, ARHGEF11, O15085
[25] = molecular target: Inadl_4, Q8NI35
[26] = molecular target: T10, PTPN13_1, Q12923
[27] = molecular target: HTRA1, Q92743
Sequence of HTRA1, Q92743 (Q92743 360-477): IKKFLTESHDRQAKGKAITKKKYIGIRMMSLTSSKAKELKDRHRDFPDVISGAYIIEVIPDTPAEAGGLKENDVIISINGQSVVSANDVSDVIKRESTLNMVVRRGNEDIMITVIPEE

Sequence of GRASP, Q7Z6J2 (Q7Z6J2 96-193): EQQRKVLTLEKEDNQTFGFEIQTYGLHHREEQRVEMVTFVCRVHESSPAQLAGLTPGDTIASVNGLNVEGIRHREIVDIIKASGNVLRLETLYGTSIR
Sequence of GRIP2_3, Q9C0E4 (Q9C0E4 238-339): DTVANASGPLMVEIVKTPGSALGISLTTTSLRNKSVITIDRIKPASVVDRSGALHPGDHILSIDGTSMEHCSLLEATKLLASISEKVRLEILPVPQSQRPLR
Sequence of GIPC2, Q8TF65 (Q8TF65 112-203): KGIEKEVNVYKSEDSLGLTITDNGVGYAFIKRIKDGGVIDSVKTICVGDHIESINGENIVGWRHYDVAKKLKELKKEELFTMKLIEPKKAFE
Sequence of GRID2IP_1, A4D2P6 (A4D2P6 1-87): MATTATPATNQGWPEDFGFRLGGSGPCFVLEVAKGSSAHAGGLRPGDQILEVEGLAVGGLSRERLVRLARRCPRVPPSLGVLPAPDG
Sequence of GRIP2_6, Q9C0E4 (Q9C0E4 648-740): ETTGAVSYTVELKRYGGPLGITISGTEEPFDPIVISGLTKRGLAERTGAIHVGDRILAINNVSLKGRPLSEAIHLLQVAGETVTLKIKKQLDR
Sequence of NHERF4_2, Q86UT5 (Q86UT5 220-308): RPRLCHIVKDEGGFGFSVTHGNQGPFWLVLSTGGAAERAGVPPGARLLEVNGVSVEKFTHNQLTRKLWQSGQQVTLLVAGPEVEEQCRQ
Sequence of DLG4_2, P78352 (P78352 155-259): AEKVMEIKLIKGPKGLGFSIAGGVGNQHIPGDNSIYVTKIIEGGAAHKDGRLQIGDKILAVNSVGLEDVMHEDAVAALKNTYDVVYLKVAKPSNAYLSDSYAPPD
Sequence of MAGI2_5, Q86UL8 (Q86UL8 915-1017): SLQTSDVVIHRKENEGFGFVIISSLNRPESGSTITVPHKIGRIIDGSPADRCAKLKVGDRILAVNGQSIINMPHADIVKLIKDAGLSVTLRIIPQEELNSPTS
Sequence of MAST2, Q6P0Q8 (Q6P0Q8 1099-1202): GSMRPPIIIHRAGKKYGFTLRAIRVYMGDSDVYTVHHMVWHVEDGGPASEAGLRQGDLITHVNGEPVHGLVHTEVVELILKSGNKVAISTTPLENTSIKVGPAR
Sequence of MAGI2_3, Q86UL8 (Q86UL8 600-682): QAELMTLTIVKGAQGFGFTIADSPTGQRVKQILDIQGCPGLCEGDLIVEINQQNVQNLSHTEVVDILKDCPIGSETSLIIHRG
Sequence of AHNAK1, Q09666 (Q09666 4-100): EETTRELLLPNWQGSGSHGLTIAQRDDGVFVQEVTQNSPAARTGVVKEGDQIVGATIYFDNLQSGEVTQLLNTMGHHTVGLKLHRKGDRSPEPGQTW
Sequence of FRMPD2_1, Q68DX3 (Q68DX3 770-861): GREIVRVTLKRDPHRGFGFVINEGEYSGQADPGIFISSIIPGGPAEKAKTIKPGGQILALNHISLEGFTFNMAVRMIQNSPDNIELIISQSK
Sequence of MAGI1_2, Q96QZ7 (Q96QZ7 456-580): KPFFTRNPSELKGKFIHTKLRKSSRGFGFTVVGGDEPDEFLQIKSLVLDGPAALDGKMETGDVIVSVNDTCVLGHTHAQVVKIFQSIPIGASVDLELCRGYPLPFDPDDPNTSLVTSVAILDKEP
Sequence of Inadl_4, Q8NI35 (Q8NI35 547-651): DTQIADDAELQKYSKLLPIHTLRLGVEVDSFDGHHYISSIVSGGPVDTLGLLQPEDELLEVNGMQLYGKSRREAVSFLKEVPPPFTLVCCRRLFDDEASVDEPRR
Sequence of SCRIB_2, Q14160 (Q14160 857-960): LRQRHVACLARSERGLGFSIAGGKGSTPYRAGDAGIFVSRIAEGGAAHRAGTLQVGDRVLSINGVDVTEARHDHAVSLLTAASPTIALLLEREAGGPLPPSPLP
Sequence of MAGI1_1, Q96QZ7 (Q96QZ7 1-106): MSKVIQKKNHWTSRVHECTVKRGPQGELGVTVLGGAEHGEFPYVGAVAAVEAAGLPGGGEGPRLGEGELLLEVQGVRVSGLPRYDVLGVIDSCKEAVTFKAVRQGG

Binder	pKd [1]	pKd [2]	pKd [3]	pKd [4]	pKd [5]	pKd [6]	pKd [7]	pKd [8]	pKd [9]	pKd [10]	pKd [11]	pKd [12]	pKd [13]	pKd [14]	pKd [15]	pKd [16]	pKd [17]	pKd [18]	pKd [19]	pKd [20]	further results
NKSEPFLTWL [WWTR1, Q9GZV5]	below the threshold	below the threshold	below the threshold	below the threshold	below the threshold	below the threshold	3.48	below the threshold	3.8	3.51	3.69	5.65	below the threshold	below the threshold	below the threshold	below the threshold	3.76	5.28	3.54	4.52	pKd [21]: 3.9; pKd [22]: 3.94; pKd [23]: below the threshold; pKd [24]: 5.33; pKd [25]: below the threshold; pKd [26]: 3.66; pKd [27]: 4.91
THHRKIHTRV [ZNF599, Q96NL3]	below the threshold	below the threshold	below the threshold	below the threshold	below the threshold	below the threshold	3.82	3.6	below the threshold	4.96	3.58	5.03	3.89	3.86	below the threshold	4.15	3.75	3.76	5.64	4.32	pKd [21]: below the threshold; pKd [22]: 3.75; pKd [23]: 3.56; pKd [24]: 4.25; pKd [25]: 3.57; pKd [26]: below the threshold; pKd [27]: 3.67

Further lines, with some results ahead:

pKd [1]	pKd [2]	pKd [3]	pKd [4]	pKd [5]	pKd [6]	pKd [7]	pKd [8]	pKd [9]	pKd [10]	pKd [11]	pKd [12]	pKd [13]	pKd [14]	pKd [15]	pKd [16]	pKd [17]	pKd [18]	pKd [19]	pKd [20]	Binder	further results
below the threshold	below the threshold	below the threshold	below the threshold	below the threshold	below the threshold	3.68	below the threshold	below the threshold	below the threshold	below the threshold	5.67	below the threshold	below the threshold	below the threshold	below the threshold	below the threshold	4.21	below the threshold	below the threshold	VISSDDLTEL [CAPN6, Q9Y6Q1]	pKd [21]: below the threshold; pKd [22]: 3.53; pKd [23]: below the threshold; pKd [24]: 4.45; pKd [25]: below the threshold; pKd [26]: below the threshold; pKd [27]: 4.55
below the threshold	below the threshold	3.65	below the threshold	below the threshold	below the threshold	3.51	below the threshold	below the threshold	below the threshold	below the threshold	5.82	below the threshold	below the threshold	below the threshold	below the threshold	4.42	below the threshold	below the threshold	3.97	AKADAQESRL [PLCB2, Q00722]	pKd [21]: below the threshold; pKd [22]: 3.59; pKd [23]: below the threshold; pKd [24]: 3.66; pKd [25]: below the threshold; pKd [26]: below the threshold; pKd [27]: below the threshold
below the threshold	below the threshold	below the threshold	below the threshold	below the threshold	below the threshold	3.64	below the threshold	below the threshold	3.91	below the threshold	4.34	3.5	below the threshold	below the threshold	below the threshold	below the threshold	3.81	3.75	below the threshold	RGKNRRQSIF [CDK18, Q07002]	pKd [21]: below the threshold; pKd [22]: below the threshold; pKd [23]: below the threshold; pKd [24]: below the threshold; pKd [25]: below the threshold; pKd [26]: below the threshold; pKd [27]: 4
